Positions count from the first letter of the chain named.
B1: anti-DLL3 trispecific protein 1C06 (protein, part only; not given: anti-CD3 and anti-albumin domains, part only)
chain, part: EVQLVESGGGLVQPGGSLTLSCVASGSTSIINAMGWYRRAPGKQRELVAGISSDGSKVYEDSVKGRFTISRDNAKNSVYLQMNSLRAEDTAVYYCYYFRAVSGSSMRYWGQGTLVTVSSGGGGSGGGSGGGGSGGGSHHHHHH
B2: anti-DLL3 trispecific protein 1B03 (protein, part only; not given: anti-CD3 and anti-albumin domains, part only)
chain, part: B1 chain, part with S27K, I30S, G35A, E60T, A100T, M106A
B3: anti-DLL3 trispecific protein 1C012 (protein, part only; not given: anti-CD3 and anti-albumin domains, part only)
chain, part: B1 chain, part with S27I, I30S, E60A, D61G, A100T, S102R
B4: anti-DLL3 trispecific protein 2A06 (protein, part only; not given: CD3 binder and albumin binder, part only)
chain, part: B1 chain, part with I30S, I31R, Y59T, E60A, A100T, V101R
B5: anti-DLL3 trispecific protein 1D04 (protein, part only; not given: CD3 fragment and albumin sdAb, part only)
chain, part: B1 chain, part with I30S, I31K, E60A, A100T, S104A
B6: anti-DLL3 trispecific protein 1B07 (protein, part only; not given: anti-CD3 and anti-albumin domains, part only)
chain, part: B1 chain, part with T28G, I30S, E60S, A100H
B7: anti-DLL3 trispecific protein 1H010 (protein, part only; not given: anti-CD3 fragment and anti-albumin sdAb, part only)
chain, part: B1 chain, part with S29R, I30S, E60N, A100T, Y108F
B8: anti-DLL3 trispecific protein 2D05 (protein, part only; not given: anti-CD3 fragment and anti-albumin domain, part only)
chain, part: B1 chain, part with I30R, E60A, A100T, V101A
B9: anti-DLL3 trispecific protein 1G07 (protein, part only; not given: anti-CD3 and anti-albumin domains, part only)
chain, part: B1 chain, part with I30S, Y59V, E60A, A100T, V101Y
B10: anti-DLL3 trispecific protein 1D012 (protein, part only; not given: anti-CD3 fragment and anti-albumin domain, part only)
chain, part: B1 chain, part with I30H, K57R, E60A, A100T, S104G
B11: anti-DLL3 trispecific protein 1E08 (protein, part only; not given: anti-CD3 fragment and anti-albumin sdAb, part only)
chain, part: B1 chain, part with S27K, I30S, Y59I, E60A, A100T, S102L
B12: anti-DLL3 trispecific protein 2F02 (protein, part only; not given: anti-CD3 fragment and anti-albumin sdAb, part only)
chain, part: B1 chain, part with I30S, M34V, E60A, D61G, A100T, S105Y
B13: anti-DLL3 trispecific protein 1F06 (protein, part only; not given: anti-CD3 and anti-albumin domains, part only)
chain, part: B1 chain, part with S27T, I30S, Y59I, E60A, A100T, S102L
B14: anti-DLL3 trispecific protein 2E09 (protein, part only; not given: anti-CD3 and anti-albumin domains, part only)
chain, part: B1 chain, part with T28V, I30S, E60A, D61S, V63A, A100T, V101L
B15: anti-DLL3 trispecific protein 1F01 (protein, part only; not given: CD3 fragment and albumin sdAb, part only)
chain, part: B1 chain, part with I30S, E60G, A100T, G103R
B16: anti-DLL3 trispecific protein 2F01 (protein, part only; not given: anti-CD3 and anti-albumin domains, part only)
chain, part: B1 chain, part with I30S, E60S, A100L
B17: anti-DLL3 trispecific protein 2A05 (protein, part only; not given: CD3 fragment and albumin sdAb, part only)
chain, part: B1 chain, part with S27R, I30S, E60N, A100T, S104T
B18: anti-DLL3 trispecific protein 1A07 (protein, part only; not given: anti-CD3 fragment and anti-albumin domain, part only)
chain, part: B1 chain, part with T28I, I30S, E60A, A100M
B19: anti-DLL3 trispecific protein 3H010 (protein, part only; not given: anti-CD3 and anti-albumin domains, part only)
chain, part: EVQLVESGGGLVQPGGSLTLSCAASGSSVSFLSMAWYRQAPGKKRELVAGISADGSTAYIDSVKGRFTISRDNAKNSVYLQMNSLRAEDTAVYYCYAYRWTTRRTYWGQGTLVTVSSGGGGSGGGSGGGGSGGGSHHHHHH
B20: anti-DLL3 trispecific protein 4G010 (protein, part only; not given: anti-CD3 and anti-albumin domains, part only)
chain, part: B19 chain, part with S27H, A58D, D61A, T101S, R104Y
B21: anti-DLL3 trispecific protein 4G05 (protein, part only; not given: CD3 fragment and albumin sdAb, part only)
chain, part: B19 chain, part with F31I, A58I, T101H, R104Y
B22: anti-DLL3 trispecific protein 3G04 (protein, part only; not given: CD3 binder and albumin binder, part only)
chain, part: B19 chain, part with A23V, S27T, A58I
B23: anti-DLL3 trispecific protein 4A07 (protein, part only; not given: CD3 binder and albumin binder, part only)
chain, part: B19 chain, part with S28K, A58L, R104Y, T105R
B24: anti-DLL3 trispecific protein 4E010 (protein, part only; not given: anti-CD3 and anti-albumin domains, part only)
chain, part: B19 chain, part with S30K, A58D, T101R, R104Y
B25: anti-DLL3 trispecific protein 4F09 (protein, part only; not given: anti-CD3 and anti-albumin domains, part only)
chain, part: B19 chain, part with S28R, A58D, D61E, R104Y
B26: anti-DLL3 trispecific protein 3H01 (protein, part only; not given: CD3 binder and albumin binder, part only)
chain, part: B19 chain, part with A23V, S30K, A53G, A58T
B27: anti-DLL3 trispecific protein 4H08 (protein, part only; not given: anti-CD3 fragment and anti-albumin sdAb, part only)
chain, part: B19 chain, part with S30K, A58D, I60V, T101S, R104Y
B28: anti-DLL3 trispecific protein 3H03 (protein, part only; not given: anti-CD3 fragment and anti-albumin domain, part only)
chain, part: B19 chain, part with S30R, A53T, A58D, Y98L, R104Y
B29: anti-DLL3 trispecific protein 4D010 (protein, part only; not given: anti-CD3 fragment and anti-albumin sdAb, part only)
chain, part: B19 chain, part with A58D, D61H, T101R, R104Y
B30: anti-DLL3 trispecific protein 4G09 (protein, part only; not given: anti-CD3 fragment and anti-albumin domain, part only)
chain, part: B19 chain, part with S28R, A53Y, A58D
B31: anti-DLL3 trispecific protein 4F04 (protein, part only; not given: anti-CD3 fragment and anti-albumin sdAb, part only)
chain, part: B19 chain, part with G26R, A53T, A58D, T101L, R104Y
B32: anti-DLL3 trispecific protein 4A02 (protein, part only; not given: anti-CD3 fragment and anti-albumin domain, part only)
chain, part: B19 chain, part with S30R, A53N, A58D, T101K, R104Y
B33: anti-DLL3 trispecific protein 3A04 (protein, part only; not given: CD3 binder and albumin binder, part only)
chain, part: B19 chain, part with S28Q, A53R, A58D, R104Y, T105I
B34: anti-DLL3 trispecific protein 3C02 (protein, part only; not given: anti-CD3 and anti-albumin domains, part only)
chain, part: B19 chain, part with S30R, A58I, T101R, R104Y
B35: anti-DLL3 trispecific protein 4E09 (protein, part only; not given: anti-CD3 fragment and anti-albumin sdAb, part only)
chain, part: B19 chain, part with M34S, A58L, R104S
B36: anti-DLL3 trispecific protein 4A09 (protein, part only; not given: anti-CD3 and anti-albumin domains, part only)
chain, part: B19 chain, part with S30K, A58D, D61G, R104V
B37: anti-DLL3 trispecific protein 4D04 (protein, part only; not given: anti-CD3 fragment and anti-albumin sdAb, part only)
chain, part: B19 chain, part with M34I, A53K, A58D, R104M
B38: anti-DLL3 trispecific protein 4F08 (protein, part only; not given: anti-CD3 and anti-albumin domains, part only)
chain, part: B19 chain, part with S28K, T101R, R104Y
B39: anti-DLL3 trispecific protein 4A05 (protein, part only; not given: anti-CD3 and anti-albumin domains, part only)
chain, part: B19 chain, part with M34L, A58D, T101K
B40: anti-DLL3 trispecific protein 3B011 (protein, part only; not given: anti-CD3 and anti-albumin domains, part only)
chain, part: B19 chain, part with T57A, A58D, T101V, R104Y
B41: anti-DLL3 trispecific protein, DLL3 binder 1D08 (protein, part only; not given: CD3 binder and albumin binder, part only)
chain, part: B1 chain, part with S27L, I30S, E60A, A100M
B42: anti-DLL3 trispecific protein, DLL3 binder 2B010 (protein, part only; not given: CD3 fragment and albumin sdAb, part only)
chain, part: B1 chain, part with I30S, I31R, V58L, E60L, A100T, S102L
B43: anti-DLL3 trispecific protein, DLL3 binder 2B01 (protein, part only; not given: CD3 fragment and albumin sdAb, part only)
chain, part: B1 chain, part with I30L, E60A, A100H
B44: anti-DLL3 trispecific protein, DLL3 binder 3B01 (protein, part only; not given: anti-CD3 fragment and anti-albumin sdAb, part only)
chain, part: B19 chain, part with A53G, A58D, R104Y
B45: anti-DLL3 trispecific protein, DLL3 binder 3F06 (protein, part only; not given: anti-CD3 fragment and anti-albumin sdAb, part only)
chain, part: B19 chain, part with S28R, A58S, T101A, R104Y
B46: anti-DLL3 trispecific protein, DLL3 binder 4A01 (protein, part only; not given: CD3 binder and albumin binder, part only)
chain, part: B19 chain, part with S30R, A53Q, A58D, T101R, R104Y
B47: anti-DLL3 trispecific protein, DLL3 binder 3D01 (protein, part only; not given: CD3 binder and albumin binder, part only)
chain, part: B19 chain, part with A53R, A58D, T101I, R104Y

target: biotinylated human DLL3 protein expressed as a human IgG1 fusion protein (human) (UniProt Q9NYJ7); test: Octet BLI; biotinylated huDLL3-IgG1 fusion on streptavidin tips; single 50 nM; conditioned medium
Target sequence in this assay (Q9NYJ7 other isoform, or with tags, fused parts or gaps): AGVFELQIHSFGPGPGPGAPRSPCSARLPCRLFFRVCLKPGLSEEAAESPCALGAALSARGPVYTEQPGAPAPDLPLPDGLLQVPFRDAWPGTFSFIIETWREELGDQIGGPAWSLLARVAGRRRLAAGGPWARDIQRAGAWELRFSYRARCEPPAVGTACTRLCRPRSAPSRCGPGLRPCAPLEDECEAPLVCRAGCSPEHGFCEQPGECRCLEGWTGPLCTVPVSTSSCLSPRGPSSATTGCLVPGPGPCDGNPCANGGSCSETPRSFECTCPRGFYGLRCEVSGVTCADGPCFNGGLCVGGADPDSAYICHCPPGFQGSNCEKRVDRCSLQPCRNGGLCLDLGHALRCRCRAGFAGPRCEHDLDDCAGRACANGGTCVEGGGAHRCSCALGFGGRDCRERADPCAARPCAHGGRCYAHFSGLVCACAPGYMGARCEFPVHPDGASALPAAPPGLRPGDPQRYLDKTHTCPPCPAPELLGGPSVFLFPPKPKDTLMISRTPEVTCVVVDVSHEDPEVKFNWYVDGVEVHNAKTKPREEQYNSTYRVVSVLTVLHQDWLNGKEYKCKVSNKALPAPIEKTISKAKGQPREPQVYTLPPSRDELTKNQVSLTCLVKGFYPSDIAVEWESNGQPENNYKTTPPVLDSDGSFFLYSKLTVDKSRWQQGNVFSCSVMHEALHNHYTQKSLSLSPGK

Row | Kd | Binder
1 | 8.3 nM | B1
2 | 8.7 nM | B2
3 | 8.5 nM | B3
4 | 8.9 nM | B4
5 | 9.7 nM | B5
6 | 8.9 nM | B6
7 | 8.4 nM | B7
8 | 8.3 nM | B8
9 | 8.3 nM | B9
10 | 9.3 nM | B10
11 | 9.4 nM | B11
12 | 9.6 nM | B12
13 | 8.9 nM | B13
14 | 8.5 nM | B14
15 | 9.4 nM | B15
16 | 9.2 nM | B16
17 | 8.9 nM | B17
18 | 8.6 nM | B18
19 | 8.6 nM | B19
20 | 9.9 nM | B20

Row | Kd | Binder
21 | 9.7 nM | B21
22 | 8.8 nM | B22
23 | 9.8 nM | B23
24 | 9 nM | B24
25 | 8.8 nM | B25
26 | 9 nM | B26
27 | 8.9 nM | B27
28 | 9.9 nM | B28
29 | 9.9 nM | B29
30 | 8.8 nM | B30
31 | 9.8 nM | B31
32 | 9 nM | B32
33 | 9.2 nM | B33
34 | 9.1 nM | B34
35 | 9.1 nM | B35
36 | 9 nM | B36
37 | 8.6 nM | B37
38 | 9 nM | B38
39 | 9.4 nM | B39
40 | 9 nM | B40

target: biotinylated human DLL3 protein expressed as a human IgG1 fusion protein (human) (UniProt Q9NYJ7); test: Octet, biotinylated human DLL3-IgG1 fusion on streptavidin tips, single 50 nM, conditioned medium (relative KD)
Target sequence in this assay (Q9NYJ7 27-492): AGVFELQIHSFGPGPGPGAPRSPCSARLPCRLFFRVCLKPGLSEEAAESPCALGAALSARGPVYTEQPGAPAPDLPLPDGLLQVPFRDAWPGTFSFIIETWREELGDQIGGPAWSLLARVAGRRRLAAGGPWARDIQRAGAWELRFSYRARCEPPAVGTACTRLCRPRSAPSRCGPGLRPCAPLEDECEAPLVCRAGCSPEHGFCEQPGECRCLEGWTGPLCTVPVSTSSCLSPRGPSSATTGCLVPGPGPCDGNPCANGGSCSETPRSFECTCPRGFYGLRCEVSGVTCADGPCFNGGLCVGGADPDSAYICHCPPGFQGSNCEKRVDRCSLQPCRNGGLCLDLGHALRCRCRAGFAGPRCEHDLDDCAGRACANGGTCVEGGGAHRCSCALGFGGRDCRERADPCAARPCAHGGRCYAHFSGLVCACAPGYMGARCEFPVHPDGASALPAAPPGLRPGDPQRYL

Row | Kd | Binder
41 | 10 nM | B41
42 | 10 nM | B42
43 | 10 nM | B43
44 | 10 nM | B44
45 | 9.9 nM | B45
46 | 10 nM | B46
47 | 10 nM | B47

— patent publication US20200095340A1
